Experiment [1] has as its target T1, human chemokine receptor CCR7 (UniProt P32248 25-378).
T1 chain: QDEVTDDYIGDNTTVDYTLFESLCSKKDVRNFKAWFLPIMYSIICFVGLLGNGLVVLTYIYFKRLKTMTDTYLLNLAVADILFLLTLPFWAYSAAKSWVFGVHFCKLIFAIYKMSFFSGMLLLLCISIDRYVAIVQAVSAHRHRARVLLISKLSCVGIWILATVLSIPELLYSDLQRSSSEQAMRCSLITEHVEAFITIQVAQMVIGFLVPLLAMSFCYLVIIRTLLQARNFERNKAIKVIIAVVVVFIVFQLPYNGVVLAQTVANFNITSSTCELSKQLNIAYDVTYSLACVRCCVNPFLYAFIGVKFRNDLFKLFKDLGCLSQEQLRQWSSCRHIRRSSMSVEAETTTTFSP
Nature of the experiment: FACS cell binding; after temperature stress.

Experiment [2] addresses T1, human chemokine receptor CCR7. In words: FACS cell binding; after pH stress (2hr).
For experiment [3] the target is unchanged. In words: FACS cell binding; after pH stress (3hr).
For experiment [4] the target is unchanged. Nature of the experiment: FACS cell binding; after pH stress (2hr).
Experiment [5] shares this target. In words: FACS cell binding; after pH stress (3hr).

B1: MSM R707 in IgG4 format (antibody, V domains shown)
VH: EVQLLESGGGLVQPGGSLRLSCAASGFTFSNYAIHWVRQAPGKGLEWVSAITPRGGYTYYADSVKGRFTISRDNSKNTLYLQMNSLRAEDTAVYYCARGLTMMYTPGMDYWGQGTLVTVSS
VL: not shown
In general, EC50 refers to the concentration that produces a half-maximal response. A lower EC50 goes with higher potency in that assay. Consider B1, for which the EC50 in experiment [1] was roughly 6 nM; in experiment [2], roughly 9.4 nM; in experiment [3], roughly 9.1 nM.

B2: MSM R735 in IgG4 format (antibody, V domains shown)
VH: EVQLLESGGGLVQPGGSLRLSCAASGFTFSNYNMHWVRQAPGKGLEWVSGIGPRRGRTYYADSVKGRFTISRDNSKNTLYLQMNSLRAEDTAVYYCARSYAYQYRGLDYWGQGTLVTVSS
VL: EIVLTQSPGTLSLSPGERATLSCRASQSVSSSYLAWYQQKPGQAPRLLIYGASSRATGIPDRFSGSGSGTDFTLTISRLEPEDFAVYYCQQGSPVTFGQGTKVEIKR
Turning to B2, the EC50 in experiment [4] is roughly 4.6 nM; in experiment [5], roughly 7.6 nM.
